Drawing on paper PMC8632965 (2021), this text covers Kd for 2 molecules.

The chains are these.
T1: caveolin-1 protein (UniProt Q03135 1-178)
T1 chain: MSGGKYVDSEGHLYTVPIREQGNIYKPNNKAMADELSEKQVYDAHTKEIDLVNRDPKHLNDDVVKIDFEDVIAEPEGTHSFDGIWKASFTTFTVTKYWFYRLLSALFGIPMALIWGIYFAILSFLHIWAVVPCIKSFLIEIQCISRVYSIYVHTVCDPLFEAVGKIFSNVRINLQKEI

B1: extracellular portion of CD147 (ECD), amino acids 22–205 (domain or fragment)
chain: AAGTVFTTVEDLGSKILLTCSLNDSATEVTGHRWLKGGVVLKEDALPGQKTEFKVDSDDQWGEYSCVFLPEPMGTANIQLHGPPRVKAVKSSEHINEGETAMLVCKSESVPPVTDWAWYKITDSEDKALMNGSESRFFVSSSQGRSELHIENLNMEADPGQYRCNGTSSKGSDQAIITLRVRSH
B2: extracellular portion of CD98 (212-630 of CD98hc) (domain or fragment)
chain: ELPAQKWWHTGALYRIGDLQAFQGHGAGNLAGLKGRLDYLSSLKVKGLVLGPIHKNQKDDVAQTDLLQIDPNFGSKEDFDSLLQSAKKKSIRVILDLTPNYRGENSWFSTQVDTVATKVKDALEFWLQAGVDGFQVRDIENLKDASSFLAEWQNITKGFSEDRLLIAGTNSSDLQQILSLLESNKDLLLTSSYLSDSGSTGEHTKSLVTQYLNATGNRWCSWSLSQARLLTSFLPAQLLRLYQLMLFTLPGTPVFSYGDEIGLDAAALPGQPMEAPVMLWDESSFPDIPGAVSANMTVKGQSEDPGSLLSLFRRLSDQRSKERSLLHGDFHAFSAGPGLFSYIRHWDQNERFLVVLNFGDVGLSAGLQASDLPASASLPAKADLLLSTQPGREEGSPLELERLKLEPHEGLLLRFPYAA

Assay [1] deals with T1, caveolin-1 protein. The experiment in a line: SPR. (In SPR one partner is held on a chip, and binding of the other changes the refractive index at the surface.)
In assay [2] the target is B2. The experiment in a line: SPR.
Assay [3] deals with T1, caveolin-1 protein. Nature of the assay: SPR; in the presence of 5A12 antibody.
For assay [4], the target named is domain 1 of CD147 with the K63A mutation (human, UniProt P35613-2 22-205, K63A). Nature of the assay: SPR.

One may read the Kd as the constant that tells how readily two partners part at equilibrium. B1: the Kd with caveolin-1 protein [1] stood at 35.7 nM; in assay [2], 818 nM; with caveolin-1 protein [3], 14.9 nM.

Regarding B2, the affinity in assay [4], expressed as Kd, was 7490 nM.
